Laboratory results from patent US20150037339A1 (Regeneron, published 2015).

T1: Activin A (human, UniProt P08476 311-426)
T1 construct: Homodimer of two βA subunits; bought from R&D Systems (#338-AC); also called inhibin-βA dimer; human Activin A
T1 sequence: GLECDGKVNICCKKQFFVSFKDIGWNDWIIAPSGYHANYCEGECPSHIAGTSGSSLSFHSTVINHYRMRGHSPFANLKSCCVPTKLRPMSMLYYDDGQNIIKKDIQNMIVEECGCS

T2: Activin B (human, UniProt P09529 293-407)
T2 construct: Homodimer of two βB subunits; R&D Systems #659-AB
T2 chain: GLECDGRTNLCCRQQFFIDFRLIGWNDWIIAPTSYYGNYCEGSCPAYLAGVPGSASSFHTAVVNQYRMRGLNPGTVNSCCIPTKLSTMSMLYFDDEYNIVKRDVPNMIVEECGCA


Assays:
Activin A [1] = molecular target: T1, Activin A; test: Octet cross-competition; binder on anti-hFc tip; 50 nM hActivin A pre-bound with 1 uM H4H10440P2 (col 9); black box
Procedure: (§1) No. 8,309,082) and Control 3 (MAB3381, available from R&D Systems, Inc., Minneapolis, Minn.) were also included in the assays. All assays were performed at 25° C. with a microtiter plate shaking rate of 1000 rpm in Octet HBST buffer (0.01 M HEPES pH7.4, 0.15M NaCl, 3 mM EDTA, 0.05% v/v Surfactant P20, 0.1 mg/mL BSA) according to manufacturer's instructions (ForteBio Corp., Menlo Park, Calif.). […] Any remaining anti-hFc binding sites on the tips were blocked by incubating the tips in a 50 ug/mL solution of irrelevant antibody for 5 minutes.

Activin B [2] = molecular target: T2, Activin B; test: SPR, captured mAb, 37C
Procedure: (§2) Antibody-antigen association was monitored for 240 seconds while dissociation in buffer was monitored for 600 seconds. Kinetic association and dissociation rate constants were determined by processing and fitting the data using Scrubber software version 2.0c. Binding equilibrium dissociation constants (KD) and dissociative half-lives (t_{1/2}) were then calculated from the kinetic rate constants as: KD (M)=kd/kₐ and t_{1/2} (min)=[ln 2/(60*kd)]. (NB=no binding observed under the conditions used; NT=not tested).

Activin A [3] = molecular target: T1, Activin A; test: SPR, captured mAb, 37C
Procedure: as §2

Activin A [4] = molecular target: T1, Activin A; test: Octet cross-competition; binder on anti-hFc tip; 50 nM hActivin A pre-bound with 1 uM H4H10468P2 (col 2); white box
Procedure: as §1

Activin A [5] = molecular target: T1, Activin A; test: Octet cross-competition; binder on anti-hFc tip; 50 nM hActivin A pre-bound with 1 uM H4H10442P2 (col 3); white box
Procedure: as §1

Activin A [6] = molecular target: T1, Activin A; test: Octet cross-competition; binder on anti-hFc tip; 50 nM hActivin A pre-bound with 1 uM H4H10446P2 (col 1); white box
Procedure: as §1

Activin A [7] = molecular target: T1, Activin A; test: Octet cross-competition; binder on anti-hFc tip; 50 nM hActivin A pre-bound with 1 uM H4H10423P (col 4); white box
Procedure: as §1

Activin A [8] = molecular target: T1, Activin A; test: SPR, captured mAb, 37C; no dissociation observed, kd fixed
Procedure: as §2

Activin A [9] = molecular target: T1, Activin A; test: Octet cross-competition; binder on anti-hFc tip; 50 nM hActivin A pre-bound with 1 uM Control 1 (col 10); black box
Procedure: as §1

Activin A [10] = molecular target: T1, Activin A; test: Octet cross-competition; binder on anti-hFc tip; 50 nM hActivin A pre-bound with 1 uM H4H10432P2 (col 7); black box
Procedure: as §1

Activin A [11] = molecular target: T1, Activin A; test: Octet cross-competition; binder on anti-hFc tip; 50 nM hActivin A mixed with 1 uM Isotype control 13 (-) (col 13); dark grey box
Procedure: as §1

Activin A [12] = molecular target: T1, Activin A; test: Octet cross-competition; binder on anti-hFc tip; 50 nM hActivin A mixed with 1 uM Isotype control 12 (-) (col 12); dark grey box
Procedure: as §1

Activin A [13] = molecular target: T1, Activin A; test: Octet cross-competition; binder on anti-hFc tip; 50 nM hActivin A pre-bound with 1 uM H4H10430P (col 5); black box
Procedure: as §1

Activin A [14] = molecular target: T1, Activin A; test: Octet cross-competition; binder on anti-hFc tip; 50 nM hActivin A pre-bound with 1 uM Control 3 (col 11); black box
Procedure: as §1

Activin A [15] = molecular target: T1, Activin A; test: Octet cross-competition; binder on anti-hFc tip; 50 nM hActivin A pre-bound with 1 uM H4H10429P (col 6); black box
Procedure: as §1

Activin B [16] = molecular target: T2, Activin B; test: SPR, captured mAb, 25C
Procedure: as §2

Activin A [17] = molecular target: T1, Activin A; test: SPR, captured mAb, 25C
Procedure: as §2

Activin A [18] = molecular target: T1, Activin A; test: SPR, captured mAb, 25C; no dissociation observed, kd fixed
Procedure: as §2

Activin A [19] = molecular target: T1, Activin A; test: Octet cross-competition; binder on anti-hFc tip; 50 nM hActivin A pre-bound with 1 uM H4H10436P2 (col 8); black box
Procedure: as §1

Activin A [20] = molecular target: T1, Activin A; test: Octet cross-competition; binder on anti-hFc tip; 50 nM hActivin A pre-bound with 1 uM H4H10423P (col 4); black box
Procedure: as §1

Binder	binding response (Activin A [1])	50 nM Ag Bound (RU) (Activin B [2])	Activin A-20 nM (RU) (Activin A [3])	Kd (Activin A [3]) [pM]	kon (Activin A [3]) [M⁻¹ s⁻¹]	t1/2 (Activin A [3]) [h]	binding response (Activin A [4])	binding response (Activin A [5])	binding response (Activin A [6])	binding response (Activin A [7])	binding response (Activin A [9])	binding response (Activin A [11])	binding response (Activin A [12])	binding response (Activin A [14])	binding response (Activin A [15])	50 nM Ag Bound (RU) (Activin B [16])	Activin A-20 nM (RU) (Activin A [17])	Kd (Activin A [17]) [pM]	kon (Activin A [17]) [M⁻¹ s⁻¹]	t1/2 (Activin A [17]) [h]	also measured
H4H10436P2 (antibody, human IgG4, V domains shown) VH: QVQLVESGGGVVQPGRSLRLTCVASGFTVSSYGMHWVRQAPGKGLEWVAVMFYDESKKYYADSVKGRFTISRDNSKNTLYLQMNSLRVEDTAVYYCARDEQLDFEYWGQGTLVTVSS VL: not shown	0.27	38.1	29.4	≤ 3.35	1.49e+07	≥ 3.85	1.32	1.39	1.22	1.41	0.16	0.14	0.28	-0.04	0.36	32.8	23.2	19	8.85e+06	1.15	Kd (Activin B [2]): 139 pM; koff (Activin B [2]): 0.00136 s⁻¹; kon (Activin B [2]): 9.78e+06 M⁻¹ s⁻¹; t1/2 (Activin B [2]): 8.5 min; koff (Activin A [8]): ≤ 5e-05 s⁻¹; binding response (Activin A [10]): 0.23; binding response (Activin A [13]): 0.28; Kd (Activin B [16]): 55.4 pM; koff (Activin B [16]): 0.000528 s⁻¹; kon (Activin B [16]): 9.52e+06 M⁻¹ s⁻¹; t1/2 (Activin B [16]): 0.365 h; koff (Activin A [17]): 0.000168 s⁻¹
H4H10432P2 (antibody, human IgG4, V domains shown) VH: EVQLVESGGGLVQPGRSLTLSCAVSGFTFDDHAMHWVRQAPGKGLEWVSGISWNSVSIGYADSVKGRFTISRDNAKTSLYLQMNSLRVDDTALYYCVQDLNDILTGYPLFDFWGQGTLVTVSS VL: not shown	0.27	5.1	25.1	≤ 2.18	2.3e+07	≥ 3.85	1.58	1.63	1.36	1.32	0.15	0.11	0.3	-0.05	0.32	5.1	20.7	≤ 3.18	1.57e+07	≥ 3.85	koff (Activin A [18]): ≤ 5e-05 s⁻¹; koff (Activin A [8]): ≤ 5e-05 s⁻¹; binding response (Activin A [19]): 0.29; binding response (Activin A [13]): 0.28; binding result (Activin B [16]): no binding (tested: 50 nM)
H4H10430P (antibody, human IgG4, V domains shown, also called H4H1430P; H4H10430P2) VH: EVQLVESGGGLVQPGRSLRLSCKASGFAFDDFAMHWVRQAPGKGLEWVSGIVWNSGDIGYADSVKGRFTISRDNAKNSLYLQLNSLRTEDTALYFCVKDMVRGLMGFNYYGMDVWGQGTTVTVSS VL: EIVLTQSPATLSLSPGERATLSCRASQTISTYLVWYRQRPGQAPSLLIYDASNRATDIPARFSGSGSGTDFTLTISSLEPEDFAVYYCQQRSNWPITFGQGTRLEIK	0.31	3.6	25	3.97	3.8e+07	1.27	1.84	1.76	1.55		0.2	0.27	0.49	-0.03	0.62	3.9	19.4	3.52	4.75e+07	1.15	binding result (Activin B [2]): no binding (tested: 50 nM); koff (Activin A [3]): 0.000151 s⁻¹; binding response (Activin A [20]): 0.33; binding response (Activin A [10]): 0.26; binding response (Activin A [19]): 0.31; koff (Activin A [17]): 0.000167 s⁻¹
